2 variants from article PMC12098869, “An mRNA-display derived cyclic peptide scaffold reveals the substrate binding interactions of an N-terminal cysteine oxidase” (Nature Communications, 2025) can be followed below.

First the molecules themselves.
B1: RGS5_(2-15), synthetic peptide corresponding to the methionine excised N-terminus of RGS5, residues 2 to 15 [human] / 2-aminoethanethiol dioxygenase (ADO), full-length human, N-terminally His-tagged and biotinylated (pQE80L-Navi-ADO) … (parent complex)
chain 1: CKGLAALPHSCLER
chain 2: MPRDNMASLIQRIARQACLTFRGSGGGRGASDRDAASGPEAPMQPGFPENLSKLKSLLTQLRAEDLNIAPRKATLQPLPPNLPPVTYMHIYETDGFSLGVFLLKSGTSIPLHDHPGMHGMLKVLYGTVRISCMDKLDAGGGQRPRALPPEQQFEPPLQPREREAVRPGVLRSRAEYTEASGPCILTPHRDNLHQIDAVEGPAAFLDILAPPYDPDDGRDCHYYRVLEPVRPKEASSSACDLPREVWLLETPQADDFWCEGEPYPGPKVFP

Variants of B1 are the subject of this assay. Nature of the assay: SPR; parent: 1; read off a plot.
In the case of chain 2 MPRDNMASLIQRIARQACLTFRGSGGGRGASDRDAASGPEAPMQPGFPENLSKLKSLLTQLRAEDLNIAPRKATLQPLPPNLPPVTYMHIYETDGFSLGVALLKSGTSIPLHDHPGMHGMLKVLYGTVRISCMDKLDAGGGQRPRALPPEQQFEPPLQPREREAVRPGVLRSRAEYTEASGPCILTPHRDNLHQIDAVEGPAAFLDILAPPYDPDDGRDCHYYRVLEPVRPKEASSSACDLPREVWLLETPQADDFWCEGEPYPGPKVFP [chain 2 F101A], the ratio to parent is approximately 74.

For the variant chain 2 MPRDNMASLIQRIARQACLTFRGSGGGRGASDRDAASGPEAPMQPGFPENLSKLKSLLTQLRAEDLNIAPRKATLQPLPPNLPPVTAMHIYETDGFSLGVFLLKSGTSIPLHDHPGMHGMLKVLYGTVRISCMDKLDAGGGQRPRALPPEQQFEPPLQPREREAVRPGVLRSRAEYTEASGPCILTPHRDNLHQIDAVEGPAAFLDILAPPYDPDDGRDCHYYRVLEPVRPKEASSSACDLPREVWLLETPQADDFWCEGEPYPGPKVFP [chain 2 Y87A], the ratio to parent is approximately 9.
